What is called EC50 is the midpoint of the concentration-response curve. A higher EC50 goes with lower potency in that assay. As a reminder, the Kd is a measure of binding affinity in units of concentration. Lower therefore signals higher affinity.

Data on 4 molecules can be found in patent publication US20240327523A1 (University of California, published 2024).

Assay [1] addresses T1, Fc-CD94 (biotinylated Fc fusion protein with the extracellular domain of human CD94 fused at the C-terminal … (human, UniProt Q13241 32-179, biotinylated on the biotin-acceptor-tag (~90% biotinylation))).
T1 construct: extracellular domain; Expressed in Expi293 cells; also called CD94 Fc fusion protein; Fc-CD94 fusion protein; not shown: biotin-acceptor-tag at the N-terminus; human IgG1 Fc; TEV proteolysis site between the ECD and Fc-domain
T1 sequence (looked up): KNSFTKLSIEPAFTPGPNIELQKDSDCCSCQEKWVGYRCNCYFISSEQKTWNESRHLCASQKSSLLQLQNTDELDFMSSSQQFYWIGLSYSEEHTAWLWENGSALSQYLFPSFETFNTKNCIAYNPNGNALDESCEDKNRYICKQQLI
Description: multipoint ELISA of purified Fab.

Assay [2] deals with T2, Fc-CD94 (biotinylated Fc fusion protein with the extracellular domain of human CD94 fused at the C-terminal … (human, UniProt Q13241 32-179, biotinylated on the biotin-acceptor-tag (~90% biotinylation))).
T2 chain: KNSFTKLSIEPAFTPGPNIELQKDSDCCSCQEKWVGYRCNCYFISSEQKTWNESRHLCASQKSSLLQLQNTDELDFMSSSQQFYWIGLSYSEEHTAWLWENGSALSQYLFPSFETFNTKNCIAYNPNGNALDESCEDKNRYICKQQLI
Description: ELISA. On the technique in general: An ELISA detects its analyte on a solid surface through an enzyme-linked reagent.

Assay [3] addresses T1, Fc-CD94 (biotinylated Fc fusion protein …). Description: assay not given; IgG affinity was measured by Octet BLI on immobilized Fc-CD94 (FIG. 3). Here is the method:
An octet assay was used to measure the affinity of IgG for the two binders JLS002-rAB22 and JLS002-rAB23. An Octet RED384 (ForteBio) instrument was used to measure the affinity of IgG for the two binders, JLS002-rAB22 and JLS002-rAB23. Fc-CD94 fusion protein was immobilized on a bio-layer interfrometry biosensor coated with streptavidin.
After blocking with PBST buffer (PBS+[…]) containing 10 μM of biotin, the IgGs being tested were loaded for 15 minutes followed by change to PBST buffer without IgG for ˜30 minutes. The kinetic binding curve was recorded.
For orientation: BLI is a label-free optical method that tracks binding on a fibre tip over time.

In assay [4] the target is T3, human CD94 expressed on Ba/F3 cells (human, UniProt Q13241 1-179).
T3 construct: whole, on cells; Mouse Ba/F3 cells stably transduced with a retroviral vector encoding human CD94; also called Ba/F3 transfectants expressing human CD94
T3 sequence (looked up): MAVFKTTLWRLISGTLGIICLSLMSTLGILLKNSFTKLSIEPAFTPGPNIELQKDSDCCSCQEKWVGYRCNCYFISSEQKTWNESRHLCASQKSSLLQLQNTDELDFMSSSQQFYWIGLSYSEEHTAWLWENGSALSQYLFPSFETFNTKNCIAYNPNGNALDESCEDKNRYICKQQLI
Description: flow cytometry staining of Ba/F3 transfectants, PE-conjugated anti-human IgG1. The procedure:
Mouse Ba/F3 cells were stably transduced with retroviral vectors encoding human CD94 or with human CD94, human NKG2C, and human DAP12 as described in Lanier, L. L., B. C. Corliss, J. Wu, and J. H. Phillips. 1998. Association of DAP12 with activating CD94/NKG2C NK cell receptors. Immunity 8:693-701. PMID: 9655483. The Ba/F3 transfectants were incubated with phosphate buffered saline (unstained) or with the rab22 JIS002 rab 22 or JSI002 rab 23 antibodies, washed, and then stained with PE-conjugated anti-human IgG1 using standard methods.

The target in assay [5] is T2, Fc-CD94 (biotinylated Fc fusion protein …). Description: BLI (Octet).

B1: JLS002-rAB22 Fab (Fab, V domains shown)
VH: EVQLVESGGGLVQPGGSLRLSCAASGFNVYSSSIHWVRQAPGKGLEWVAYISSYSGYTYYADSVKGRFTISADTSKNTAYLQMNSLRAEDTAVYYCARGRYQGMDYWGQGTLVTVSS
VL: DIQMTQSPSSLSASVGDRVTITCRASQSVSSAVAWYQQKPGKAPKLLIYSASSLYSGVPSRFSGSRSGTDFTLTISSLQPEDFATYYCQQYAYHLITFGQGTKVEIK
notes: Fab expressed and purified after phage selection
For the molecule B1, in assay [1], the binding result was “binds”. In assay [2], this molecule registered an EC50 of 3.42 nM.

B2: JLS002-rAB22 IgG (antibody, V domains shown)
VH: EVQLVESGGGLVQPGGSLRLSCAASGFNVYSSSIHWVRQAPGKGLEWVAYISSYSGYTYYADSVKGRFTISADTSKNTAYLQMNSLRAEDTAVYYCARGRYQGMDYWGQGTLVTVSS
VL: DIQMTQSPSSLSASVGDRVTITCRASQSVSSAVAWYQQKPGKAPKLLIYSASSLYSGVPSRFSGSRSGTDFTLTISSLQPEDFATYYCQQYAYHLITFGQGTKVEIK
notes: also called rab22 JIS002 rab 22
On to B2, for which the binding result in assay [3] and in assay [4] was “binds” each time. In addition, in assay [5], the affinity, expressed as Kd, was 1.74 nM.

B3: JLS002-rAB23 Fab (Fab, V domains shown)
VH: EVQLVESGGGLVQPGGSLRLSCAASGFNVYSSSIHWVRQAPGKGLEWVASISSYSGSTSYADSVKGRFTISADTSKNTAYLQMNSLRAEDTAVYYCARYGYYMSGAMDYWGQGTLVTVSS
VL: DIQMTQSPSSLSASVGDRVTITCRASQSVSSAVAWYQQKPGKAPKLLIYSASSLYSGVPSRFSGSRSGTDFTLTISSLQPEDFATYYCQQKKAYSLITFGQGTKVEIK
notes: as for B1
For B3, the binding result in assay [1] is “binds”. In assay [2], a half-maximal effect (EC50) was put at 2.98 nM.

B4: JLS002-rAB23 IgG (antibody, V domains shown)
VH: EVQLVESGGGLVQPGGSLRLSCAASGFNVYSSSIHWVRQAPGKGLEWVASISSYSGSTSYADSVKGRFTISADTSKNTAYLQMNSLRAEDTAVYYCARYGYYMSGAMDYWGQGTLVTVSS
VL: DIQMTQSPSSLSASVGDRVTITCRASQSVSSAVAWYQQKPGKAPKLLIYSASSLYSGVPSRFSGSRSGTDFTLTISSLQPEDFATYYCQQKKAYSLITFGQGTKVEIK
notes: also called JSI002 rab 23
As to B4, the binding result in assay [3] and in assay [4] was “binds” in each case. In assay [5], this molecule displayed a Kd of 0.94 nM.
